Laboratory results taken from patent publication US20210403582A1 (JACOBIO PHARMACEUTICALS, published 2021).

What was measured:
human LIF protein [1] = biological target: T1, human LIF protein (human, UniProt P15018 23-202); test: competition ELISA: human LIF coated at 1 µg/mL, LIFR-Fc 0.6125 µg/mL added together with the antibody, A450
T1 construct: Bought recombinant protein (Sino Biological / Yiqiao Shenzhou 14890-HNAH) in most assays; also called recombinant human LIF protein; rhLIF
Procedure: The recombinant human LIF protein was coated on the enzyme label plate at a concentration of 1 μg/mL, LIFR protein (expressed fusedly with human FC) at a concentration of 0.6125 μg/mL was added (50 μL/well), and the anti-human LIF antibodies 38E10E1C11, P36-033 and 38E10E1C11R which is recombinantly expressed by CHO cells (SEQ ID NOs: 41 and 43) at different concentrations simultaneously were added separately (50 μL/well) and incubated for 2 h at room temperature. After washed four times with PBST, incubated with HRP-labeled goat anti-mouse FC secondary antibody for 1 h at room temperature. Then the plates were washed four times with PBST and added with TMB coloured solution in for 10 minutes. The absorption value at 450 nm is quantitated using an enzyme-labelling measuring instrument, and the data was analyzed and plotted using Origin pro 9 software.

human LIF protein [2] = biological target: T1, human LIF protein; test: cell-based or functional assay
human IL-6 = human IL-6 (human, UniProt P05231 30-212, limits assumed); test: ELISA, human IL-6 coated at 1 µg/mL, HRP goat anti-mouse Fab, A450
Sequence of human IL-6 (P05231 30-212 limits assumed): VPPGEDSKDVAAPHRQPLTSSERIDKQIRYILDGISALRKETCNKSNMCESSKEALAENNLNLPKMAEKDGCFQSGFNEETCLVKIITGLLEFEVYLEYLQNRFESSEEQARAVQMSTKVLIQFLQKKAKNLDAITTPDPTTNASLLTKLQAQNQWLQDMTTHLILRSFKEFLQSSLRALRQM
Procedure: (§1) After washed four times with PBST, HRP-labeled goat anti-mouse Fab secondary antibodies were added and incubated at room temperature for 1 h. After washed four times with PBST, TMB colored solution was added and color developing for 10 min at room temperature. The absorption value at 450 nm was read by the enzyme maker. The data were analyzed and plotted using Origin pro 9 software.

human CNTF = biological target: T2, human CNTF (human, UniProt P26441 1-200, limits assumed); test: ELISA, human CNTF coated at 1 µg/mL, HRP goat anti-mouse Fab, A450
T2 sequence (looked up): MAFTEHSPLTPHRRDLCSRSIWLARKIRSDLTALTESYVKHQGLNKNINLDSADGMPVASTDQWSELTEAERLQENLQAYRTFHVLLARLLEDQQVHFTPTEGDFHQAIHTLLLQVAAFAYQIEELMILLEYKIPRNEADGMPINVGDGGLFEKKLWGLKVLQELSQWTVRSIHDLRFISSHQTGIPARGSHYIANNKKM
Procedure: as §1

human OSM = biological target: T3, human OSM (human, UniProt P13725 26-221, limits assumed); test: ELISA, human OSM coated at 1 µg/mL, HRP goat anti-mouse Fab, A450
T3 sequence (looked up): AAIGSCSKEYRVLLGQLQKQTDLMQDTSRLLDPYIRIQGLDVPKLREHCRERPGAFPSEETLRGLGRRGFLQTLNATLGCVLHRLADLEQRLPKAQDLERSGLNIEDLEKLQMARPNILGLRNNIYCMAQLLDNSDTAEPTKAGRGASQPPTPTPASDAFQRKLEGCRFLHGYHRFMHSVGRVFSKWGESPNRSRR
Procedure: as §1

human LIF protein [3] = biological target: T1, human LIF protein; test: competition ELISA, LIF coated, competitor LIFR-Fc 0.6125 ug/mL detected with anti-human Fc
[4] = biological target: T4, Mut3 heterozygous LIF protein (human LIF with residues 182-202 of …, UniProt P15018 23-201, limits assumed); test: western blot of 293T culture supernatants, primary antibody 1 µg/mL, HRP anti-human Fc
T4 construct: Secreted into the supernatant of transfected 293T cells; also called Mut3 protein
Procedure: (§2) The supernatant of 293T cells transfected with human LIF full-length gene sequence, Mut3 and Mut4 protein sequences after 3 days of culture, and the negative control of 293T cell culture supernatant were taken, 5×SDS-PAGE loading buffer was added, and boiled for 10 minutes. Then 10 μL of sample was taken for SDS-PAGE electrophoresis, and then the electrophoretic bands were transferred to PVDF membrane for western blot detection. The primary antibody for detection was 38E huH3L2 or 38E huH3L4 antibody at a concentration of 1 μg/mL, and was incubated for 2 hours at room temperature. Then washed three times in PBST buffer and diluted HRP-labeled sheep anti-human Fc secondary antibody at a dilution ration of 1:3000 was added, incubated with the secondary antibody for 2 hours at room temperature, washed three times in PBST buffer and enhanced Chemiluminescent solution (Perice, item no. 34079) was added and incubated. An Amersham Imager 600 ultra-sensitive multifunctional imager was used for detection and photograph. […] The same results were obtained in the M1 cell proliferation assay, and the results were detailed in subfigure B in FIG. 22. Therefore, the epitope sequences recognized by the 38E huH3L2 and 38E huH3L4 antibodies were determined to be […] (SEQ ID NO: 61).

[5] = biological target: T5, Mut4 heterozygous LIF protein (human LIF with residues 166-202 of …, UniProt P15018 23-201, limits assumed); test: as above
T5 construct: Secreted into the supernatant of transfected 293T cells; also called Mut4 protein
Procedure: as §2

human LIF protein [6] = biological target: T1, human LIF protein; test: ELISA, antigen coated 0.5 ug/ml, 293S supernatant heated 70 C 5 min, antibody 0.04 ug/mL
Procedure: (§3) Each well was coated with 100 μL of 0.5 μg/ml antigen and incubate overnight at 4° C., and the plates were washed three times with 300 μL of Wash Buffer. The plates were closed with 200 μL of Closure Buffer (2% bovine serum albumin) for 60 min at room temperature. The plates were washed three times with 300 μL of Wash Buffer. 100 μL of diluted anti-LIF antibody at different concentrations was added to each well and incubate for 1 hour at room temperature. The plates were washed 4 times with 300 μL of Wash Buffer. 100 μL of HRP-labeled goat anti-human Fc secondary antibody at a dilution of 1:5000 was added and incubate for 1 hour at room temperature. The plates were washed 6 times with 300 μL of Wash Buffer. 100 μL of H₂O₂-Amplx Color Development Solution was added for developing the color for 10 min at room temperature under dark conditions. The OD 450 value was read by an enzyme marker. Heat treatment: the expression medium was heated on the PCR machine at 70° C. for 5 min and then rapidly cooled to room temperature. Perform subsequent ELISA assays as above.

human LIF protein [7] = biological target: T1, human LIF protein; test: BLI (Gator), antibody on anti-human Fc biosensor, human LIF in solution
Procedure: The affinity of anti-LIF antibody to human LIF protein was determined using Gator. The anti-human LIF antibody was first diluted to 5 ug/mL with PBS and then added to A-F wells in second column of the 96-well plate (200 μL per well). […] PBS was added to A-F wells in the first and third columns (200 μL per well). The 96-well plates were placed into the instrument and detected with anti-human Fc biosensor.

human LIF protein [8] = biological target: T1, human LIF protein; test: ELISA, antigen coated 0.5 ug/ml, 293S supernatant heated 70 C 5 min, antibody 0.2 ug/mL
Procedure: as §3

human LIF protein [9] = biological target: T1, human LIF protein; test: ELISA, antigen coated 0.5 ug/ml, 293S supernatant non-heated, antibody 0.04 ug/mL
Procedure: as §3

human LIF protein [10] = biological target: T1, human LIF protein; test: ELISA, antigen coated 0.5 ug/ml, 293S supernatant heated 70 C 5 min, antibody 1 ug/mL
Procedure: as §3

human LIF protein [11] = biological target: T1, human LIF protein; test: ELISA, antigen coated 0.5 ug/ml, 293S supernatant non-heated, antibody 1 ug/mL
Procedure: as §3

human LIF protein [12] = biological target: T1, human LIF protein; test: ELISA, antigen coated 0.5 ug/ml, 293S supernatant non-heated, antibody 0.2 ug/mL
Procedure: as §3

B1: 38E10E1C11R (38E10E1C11 antibody recombinantly expressed by CHO cells) (antibody, mouse IgG1, kappa)
heavy: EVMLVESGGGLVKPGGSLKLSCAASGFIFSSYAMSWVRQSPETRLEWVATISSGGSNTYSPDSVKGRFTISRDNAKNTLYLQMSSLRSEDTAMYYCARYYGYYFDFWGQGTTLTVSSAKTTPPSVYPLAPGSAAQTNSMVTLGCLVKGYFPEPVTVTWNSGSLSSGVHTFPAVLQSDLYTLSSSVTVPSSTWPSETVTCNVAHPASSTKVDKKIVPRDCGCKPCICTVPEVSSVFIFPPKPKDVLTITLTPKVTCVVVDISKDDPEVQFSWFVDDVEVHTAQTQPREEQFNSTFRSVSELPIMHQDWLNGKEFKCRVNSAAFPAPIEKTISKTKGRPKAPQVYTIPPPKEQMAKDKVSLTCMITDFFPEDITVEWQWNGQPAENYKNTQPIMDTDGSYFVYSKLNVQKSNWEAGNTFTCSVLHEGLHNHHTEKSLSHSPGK
light: DIHMTQSPASLSASVGETVTITCRASENIYSYLAWYQQKQGKSPQLLVYNAKTLAEGVPSRFSGSGSGTQFSLKINSLQPEDFGSYYCQHHYVTPLTFGAGTKLELKRADAAPTVSIFPPSSEQLTSGGASVVCFLNNFYPKDINVKWKIDGSERQNGVLNSWTDQDSKDSTYSMSSTLTLTKDEYERHNSYTCEATHKTSTSPIVKSFNRNEC
In the case of B1, the “IC50 (read off the curve)” value (human LIF protein [1]) is reported as about 0.2 µg/mL.

B2: 38E HuH3L2-m (antibody, mouse IgG1, kappa)
heavy: EVMLVESGGGLVQPGGSLRLSCAASGFIFSSYAMSWVRQAPETRLEWVATISSGGSNTYSPDTVKGRFTISRDNSKNTLYLQMNSLRAEDTAMYYCARYYGYYFDFWGQGTLLTVSSAKTTPPSVYPLAPGSAAQTNSMVTLGCLVKGYFPEPVTVTWNSGSLSSGVHTFPAVLQSDLYTLSSSVTVPSSTWPSETVTCNVAHPASSTKVDKKIVPRDCGCKPCICTVPEVSSVFIFPPKPKDVLTITLTPKVTCVVVDISKDDPEVQFSWFVDDVEVHTAQTQPREEQFNSTFRSVSELPIMHQDWLNGKEFKCRVNSAAFPAPIEKTISKTKGRPKAPQVYTIPPPKEQMAKDKVSLTCMITDFFPEDITVEWQWNGQPAENYKNTQPIMDTDGSYFVYSKLNVQKSNWEAGNTFTCSVLHEGLHNHHTEKSLSHSPGK
light: DIHMTQSPSSLSASVGDRVTITCRASENIYSYLAWYQQKPGKSPKLLVYNAKTLAEGVPSRFSGSGSGTDFTLTISSLQPEDFATYYCQHHYVTPLTFGQGTKLEIKRADAAPTVSIFPPSSEQLTSGGASVVCFLNNFYPKDINVKWKIDGSERQNGVLNSWTDQDSKDSTYSMSSTLTLTKDEYERHNSYTCEATHKTSTSPIVKSFNRNEC
notes: Humanized variable regions of 38E HuH3L2 on mouse IgG1 / kappa constant regions
With B2 the “EC50, reversal of proliferation inhibition of M1 cells (CCK-8)” value (human LIF protein [2]) was 8.93 µg/mL, the binding result (human IL-6) was “no binding (tested: 25 ug/ml)” and the binding result (human CNTF) was “no binding (tested: 25 ug/ml)”. The binding result (human OSM) was “no binding (tested: 25 ug/ml)” and the IC50 (human LIF protein [3]) was 0.145 µg/mL.

B3: 38E HuH3L4-m (antibody, mouse IgG1, kappa)
heavy: EVMLVESGGGLVQPGGSLRLSCAASGFIFSSYAMSWVRQAPETRLEWVATISSGGSNTYSPDTVKGRFTISRDNSKNTLYLQMNSLRAEDTAMYYCARYYGYYFDFWGQGTLLTVSSAKTTPPSVYPLAPGSAAQTNSMVTLGCLVKGYFPEPVTVTWNSGSLSSGVHTFPAVLQSDLYTLSSSVTVPSSTWPSETVTCNVAHPASSTKVDKKIVPRDCGCKPCICTVPEVSSVFIFPPKPKDVLTITLTPKVTCVVVDISKDDPEVQFSWFVDDVEVHTAQTQPREEQFNSTFRSVSELPIMHQDWLNGKEFKCRVNSAAFPAPIEKTISKTKGRPKAPQVYTIPPPKEQMAKDKVSLTCMITDFFPEDITVEWQWNGQPAENYKNTQPIMDTDGSYFVYSKLNVQKSNWEAGNTFTCSVLHEGLHNHHTEKSLSHSPGK
light: DIHMTQSPSSLSASVGDRVTITCRASENIYSYLAWYQQKQGKSPQLLVYNAKTLAEGVPSRFSGSGSGTQFTLKINSLQPEDFATYYCQHHYVTPLTFGQGTKLEIKRADAAPTVSIFPPSSEQLTSGGASVVCFLNNFYPKDINVKWKIDGSERQNGVLNSWTDQDSKDSTYSMSSTLTLTKDEYERHNSYTCEATHKTSTSPIVKSFNRNEC
notes: Humanized variable regions of 38E HuH3L4 on mouse IgG1 / kappa constant regions
B3 was tested, and the “EC50, reversal of proliferation inhibition of M1 cells (CCK-8)” value (human LIF protein [2]) was 6.52 µg/mL, the binding result (human IL-6) was “no binding (tested: 25 ug/ml)” and the binding result (human CNTF) was “no binding (tested: 25 ug/ml)”. The binding result (human OSM) was “no binding (tested: 25 ug/ml)” and the IC50 (human LIF protein [3]) was 0.103 µg/mL.

B4: 38E HuH3L2 (antibody, human IgG1, kappa, N297A)
heavy: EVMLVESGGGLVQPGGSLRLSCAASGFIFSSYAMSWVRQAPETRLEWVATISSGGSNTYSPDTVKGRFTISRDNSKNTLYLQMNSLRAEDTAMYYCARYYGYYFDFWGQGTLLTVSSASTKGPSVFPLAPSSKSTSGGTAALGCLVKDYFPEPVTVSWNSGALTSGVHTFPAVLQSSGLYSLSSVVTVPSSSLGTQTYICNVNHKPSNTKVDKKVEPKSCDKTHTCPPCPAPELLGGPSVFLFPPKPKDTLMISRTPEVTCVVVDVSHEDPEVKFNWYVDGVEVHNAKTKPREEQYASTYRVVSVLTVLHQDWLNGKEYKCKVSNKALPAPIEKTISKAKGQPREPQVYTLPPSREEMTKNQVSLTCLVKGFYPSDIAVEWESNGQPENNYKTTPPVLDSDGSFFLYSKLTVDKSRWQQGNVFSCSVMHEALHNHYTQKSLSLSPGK
light: DIHMTQSPSSLSASVGDRVTITCRASENIYSYLAWYQQKPGKSPKLLVYNAKTLAEGVPSRFSGSGSGTDFTLTISSLQPEDFATYYCQHHYVTPLTFGQGTKLEIKRTVAAPSVFIFPPSDEQLKSGTASVVCLLNNFYPREAKVQWKVDNALQSGNSQESVTEQDSKDSTYSLSSTLTLSKADYEKHKVYACEVTHQGLSSPVTKSFNRGEC
notes: Humanized, human IgG1 / kappa
In the case of B4, the binding result [4] is reported as “binds”, the binding result [5] is reported as “no binding (tested: primary antibody 1 µg/mL)” and the ELISA signal (human LIF protein [6]) is reported as 5060. The Kd (human LIF protein [7]) was 53.8 pM, the koff (human LIF protein [7]) was 3.39e-05 s⁻¹ and the kon (human LIF protein [7]) was 631000 M⁻¹ s⁻¹. For the same binder, the ELISA signal (human LIF protein [8]) was 8780, the ELISA signal (human LIF protein [9]) was 6600 and the ELISA signal (human LIF protein [10]) was 9450. For the same binder, the ELISA signal (human LIF protein [11]) was 11300 and the ELISA signal (human LIF protein [12]) was 10600.

B5: 38E HuH3L4 (antibody, human IgG1, kappa, N297A)
heavy: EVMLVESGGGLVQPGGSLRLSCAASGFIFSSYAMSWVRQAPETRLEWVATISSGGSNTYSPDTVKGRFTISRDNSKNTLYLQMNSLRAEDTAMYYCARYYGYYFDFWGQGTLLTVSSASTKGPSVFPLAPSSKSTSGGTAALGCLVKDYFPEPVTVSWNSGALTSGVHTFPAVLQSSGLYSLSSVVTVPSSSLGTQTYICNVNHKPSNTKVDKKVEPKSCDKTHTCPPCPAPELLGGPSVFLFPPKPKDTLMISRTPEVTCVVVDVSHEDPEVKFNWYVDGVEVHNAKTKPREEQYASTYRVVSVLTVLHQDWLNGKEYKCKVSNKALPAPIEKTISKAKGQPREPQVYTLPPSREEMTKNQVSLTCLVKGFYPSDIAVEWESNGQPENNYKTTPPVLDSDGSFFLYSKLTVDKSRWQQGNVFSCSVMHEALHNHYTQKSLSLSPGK
light: DIHMTQSPSSLSASVGDRVTITCRASENIYSYLAWYQQKQGKSPQLLVYNAKTLAEGVPSRFSGSGSGTQFTLKINSLQPEDFATYYCQHHYVTPLTFGQGTKLEIKRTVAAPSVFIFPPSDEQLKSGTASVVCLLNNFYPREAKVQWKVDNALQSGNSQESVTEQDSKDSTYSLSSTLTLSKADYEKHKVYACEVTHQGLSSPVTKSFNRGEC
notes: Humanized, human IgG1 / kappa
B5 was tested, and the binding result [4] was “binds”, the binding result [5] was “no binding (tested: primary antibody 1 µg/mL)” and the ELISA signal (human LIF protein [6]) was 5300. For the same binder, the “IC50, P-STAT3 (TYR705) in KP4 cells, HTRF kit” value (human LIF protein [2]) was 3420 pM, the Kd (human LIF protein [7]) was 76.6 pM and the koff (human LIF protein [7]) was 4.44e-05 s⁻¹. The kon (human LIF protein [7]) was 579000 M⁻¹ s⁻¹, the ELISA signal (human LIF protein [8]) was 9060 and the ELISA signal (human LIF protein [9]) was 7060. The ELISA signal (human LIF protein [10]) was 9950, the ELISA signal (human LIF protein [11]) was 11900 and the ELISA signal (human LIF protein [12]) was 11200.
